Experimental data published in patent publication US20170334973A1 (INTEGRATED BIOTHERAPEUTICS, published 2017).
Changes are numbered by the printed parent chain.

T1: SUDV VLP (Sudan virus (SUDV), UniProt Q66814 33-676)
T1 sequence: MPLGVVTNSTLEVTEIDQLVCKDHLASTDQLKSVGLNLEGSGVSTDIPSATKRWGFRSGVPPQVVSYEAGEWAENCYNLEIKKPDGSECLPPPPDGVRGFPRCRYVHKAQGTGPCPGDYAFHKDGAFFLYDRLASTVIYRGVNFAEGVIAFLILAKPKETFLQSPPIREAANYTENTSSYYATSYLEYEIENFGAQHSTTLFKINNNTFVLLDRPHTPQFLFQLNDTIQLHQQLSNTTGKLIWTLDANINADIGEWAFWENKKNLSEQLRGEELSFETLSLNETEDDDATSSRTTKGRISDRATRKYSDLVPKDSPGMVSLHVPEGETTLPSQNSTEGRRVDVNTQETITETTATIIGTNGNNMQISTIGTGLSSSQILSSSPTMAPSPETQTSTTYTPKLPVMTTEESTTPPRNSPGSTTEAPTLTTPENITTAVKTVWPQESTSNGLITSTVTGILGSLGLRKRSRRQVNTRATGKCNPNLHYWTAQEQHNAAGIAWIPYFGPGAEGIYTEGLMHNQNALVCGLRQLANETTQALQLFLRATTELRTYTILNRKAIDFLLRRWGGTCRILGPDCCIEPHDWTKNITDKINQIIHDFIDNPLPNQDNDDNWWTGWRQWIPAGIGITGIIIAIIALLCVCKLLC

T2: EBOV VLP (Ebola virus (EBOV), UniProt Q05320 33-676)
T2 sequence: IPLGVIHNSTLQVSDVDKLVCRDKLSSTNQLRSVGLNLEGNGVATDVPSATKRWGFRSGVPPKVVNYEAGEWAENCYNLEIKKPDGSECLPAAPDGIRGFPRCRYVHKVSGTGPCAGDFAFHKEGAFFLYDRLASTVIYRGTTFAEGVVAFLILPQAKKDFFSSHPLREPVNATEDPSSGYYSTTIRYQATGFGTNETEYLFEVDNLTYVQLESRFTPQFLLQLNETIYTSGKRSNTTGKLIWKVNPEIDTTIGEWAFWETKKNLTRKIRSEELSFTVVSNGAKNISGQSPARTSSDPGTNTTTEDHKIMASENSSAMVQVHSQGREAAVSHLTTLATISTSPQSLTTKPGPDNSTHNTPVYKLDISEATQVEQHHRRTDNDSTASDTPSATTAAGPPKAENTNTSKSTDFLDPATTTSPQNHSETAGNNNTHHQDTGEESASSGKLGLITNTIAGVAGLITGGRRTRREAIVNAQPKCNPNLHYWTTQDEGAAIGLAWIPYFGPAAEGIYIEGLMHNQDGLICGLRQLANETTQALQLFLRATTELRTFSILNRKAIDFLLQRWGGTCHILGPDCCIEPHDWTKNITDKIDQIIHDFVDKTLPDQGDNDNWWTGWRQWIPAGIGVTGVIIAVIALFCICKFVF

B1: FVM04 (antibody, V domains shown)
VH: EVQLVQSGGGLVQPGGSMRLSCEASGLSLSDYFMHWVRQAQGKGLEWIGLIQTKAFTYKTEYPAAVKGRFTISRDDSKNTLYLQMSSLKPEDTALYYCIAVTPDFYYWGQGVLVTVSS
VL: DVVMTQSPSFLSASVGDRVTITCRASQDITINLNWFQHKPGKAPKRLIYVASRLERGVPSRFSGSGSGTEFTLTISSLQPEDFATYYCQQYNNYPLTFGPGTKLDIKR
B2: FVM29 (antibody, V domains shown)
VH: EVQLVQSGAEVKRPGESLKISCQTSGNSFTNNWISWVRQMPGKGLEWMGAIDPSDSETRYSPSFQGQVTISADKSINTAYLQWSSLKASDTATYYCVKGSETWGQGVLVTVSS
VL: QPVLTQPASLSASPGASASLTCTFSGGINVAGYNILWYQQKAGSPPRYLLRYKSDSTKDQGSGVPSRFSGSKDASANTGILRISGLQSEDEADYYCAIGHSSGWIFGGGTRLTVL
B3: FVM07 (antibody, V domains shown)
VH: EVQLVQSGAEVKRPGESLTISCKTSGYSFTDSWIGWVRQMPGKGLEWMGSIYPGDSDTKYNPSFQGHVTISADKSISTTYLQWSSLKASDTATYYCVAREAYWGQGVLVTVSS
VL: B2 VL with N34H, L36F, A42P, T57D, D59G, W104V, I105L
B4: FVM39 (antibody, V domains shown)
VH: EVQLVQSGAEVKRPGESLRISCKTSGYSFTDSWISWVRQMPGKGLEWLGSIYPGDSETKYNPSFQGHVTISADKSVTTTYLKWSSLKASDTATYYCVKGSETWGQGVLVTVSS
VL: B2 VL
B5: FVM08 (antibody, V domains shown)
VH: EVQLVQSGAEVKRPGESLTISCKTSGYSFTDSWVAWVRQMPGKGLEWMGSIYPGDSDTRYNPSFEGQVTISADKSISTTYLQWSSLRASDTATYYCVKGADDWGQGVLVTVSS
VL: B2 VL
B6: FVM06 (antibody, V domains shown)
VH: B2 VH with K19T, Q23K, N27Y, N32Y, K43E, E57D, I70M, N77T
VL: B2 VL
B7: FVM11 (antibody, V domains shown)
VH: B4 VH with R19T, I34V, S35A
VL: B2 VL with Q1N, P2F, V3M
B8: FVM27 (antibody, V domains shown)
VH: B2 VH with Q23K, N27Y, T30A, N31S, N32S, E57A, N77S
VL: B2 VL with T113I
B9: FVM14 (antibody, V domains shown)
VH: B4 VH with R19K, K23Q, D31S, S32T, S35T, V76I, T77S, K82Q, S84N
VL: B2 VL with P2A, L4V
B10: FVM15 (antibody, V domains shown)
VH: B4 VH with E1Q, S28T, S32Y, S35A, L48M, S85R
VL: B2 VL
B11: FVM05 (antibody, V domains shown)
VH: QVQLQESGPGLVKPSETLSLTCAVSGFSISSGYGWSWIRQPPGKGLEWIGYIGGSSGSTSYNPSLKSRVTLSADTSKNQFSLKLSSVTAADTAVYYCARRYSSYRSWFDVWGPGVLVTVSS
VL: SSGLTQPRSVSVSPGQTARITCGGDNIGSKSVHWYQQKPPQAPVLVIYADSERPSGIPERFSGSNSGNTATLTISGVEAGDEADYYCQVWDSSSDHWVFGGGTRLTVL

What follows are binders tested against T1, SUDV VLP (assay: ELISA).
B1 was tested, and the EC50 was 193 pM.
B2 gave an EC50 of 24100 pM.
For B3, the EC50 was 18200 pM.
In the case of B4, the EC50 is reported as 47 pM.
With B5 the EC50 was 135 pM.
Work on B6 yielded an EC50 of 213 pM.
For B7, the EC50 was 189 pM.
Work on B8 yielded an EC50 of 120 pM.
B9 showed an EC50 of 157 pM.
Work on B10 yielded an EC50 of 129 pM.

The binders below were run against T2, EBOV VLP (assay: ELISA).
With B11 the EC50 was 18000 pM.
With B1 the EC50 was 306 pM.
B3 gave an EC50 of 1710 pM.
Binder B4 has an EC50 of 80 pM.
B5 showed an EC50 of 193 pM.
B6 was tested, and the EC50 was 215 pM.
For B7, the EC50 was 219 pM.
In the case of B8, the EC50 is reported as 233 pM.
In the case of B9, the EC50 is reported as 780 pM.
Binder B10 has an EC50 of 151 pM.
